assay: soluble on expression in E. coli; label from the status in PepcDB or PDB records

Sequence | soluble on expression in E. coli
MANSLCFFSSPPTFCFQSPSKNPKPSHFFSTNDNTSSLVQKRELLQTSRSQSFEVKAANNNPQGTKPNSLVCANCEGEGCVACSQCKGGGVNLIDHFNGQFKAGALCWLCRGKKEVLCGDCNGAGFIGGFLSTFDE | soluble
MVIDQTDPIYVLFHDEEWGVPVRDDKKLFELLVFSQALAEFSWPSILRRRDDFRKLFEEFDPSAIAQFTEKRLMSLRVNGCLILSEQKLRAIVENAKSVLKVKQEFGSFSNYCWRFVNHKPLRNGYRYGRQVPVKSPKAEYISKDMMQRGFRCVGPTVMYSFLQASGIVNDHLTACFRYQECNVETERETKSHETETKLDLHSPLLV | soluble
GSSTVTLPETLLFVSTLDGSLHAVSKRTGSIKWTLKEDPVLQVPTHVEEPAFLPDPNDGSLYTLGSKNNEGLTKLPFTIPELVQASPCRSSDGILYMGKKQDIWYVIDLLTGEKQQTLSSAFADSLSPSTSLLYLGRTEYTITMYDTKTRELRWNATYFDYAASLPEDDVDYKMSHFVSNGDGLVVTVDSESGDVLWIQNYASPVVAFYVWQREGLRKVMHINVAVETLRYLTFMSGEVGRITKWKYPFPKETEAKSKLTPTLYVGKYSTSLYASPSMVHEGVAVVPRGSTLPLLEGPQTDGVTIGDKGESVITPSTDVKFDPGLKSKNKLNYLRNYWLLIGHHETPLSASTKMLERFPNNLPKHRENV | soluble
MSLKNENKMIIYQVFTRLFGNNNNHCIYNGDISQNGCGKMADFTAKALGEIKKLGATHIWYTGIIEHASQTDYRRYNIRPDHPAIVKGKAGSPYAIKDYYDVDPDLATDVPGRMKEFENLVSRTHRAGLKVIIDFVPNHVARQYHSDAQPDGTTQLGANDDPNYSFSPYNNFYYIPQSELHGQFDMTGNALEPYHEFPAKATGNNRFDAYPNINDWYETVKLNYGVDYQNGGTCHFSPTPDTWTKMLDILLFWSSKNIDGFRCDMAEMVPVEFWEWAIPQVKQEYPNIIFIAEVYNPHEYKNYLFRGKFDFLYDKVGLYDTLRNVACGYDSATAITRSWQSLGGIEKRMLNFLENHDEQRIASDFFAGDPRKGVPALIVSACMNTNPMMIYFGQEFGEMGMDSEGFSGRDGRTTIFDYWSVDTIRRWRNEGKFDGKMLTEEQKHLYAIYQRVLTLCNEEQAISNGVFFDLMYANENGWRFNEHKQYTFMRKYKNELLFIVVNFDNQPVNVAINVPSHAFDFLQIPQFDSYKAVDLLTDKVEEISLLPYKATEIALGAYTGKILKIKEGHHHHHH | soluble
MGSDKIHHHHHHMAADHVHCASCGQPLTGSYYVLINRPERFCPQCIATRPRCSTCGAPLGNHFWKLHDGRQQCDACHAVAIYDPVQAQHLFQQTAGMLAEGMGLRLHVGVAFRLVDAPTMARLRGPTPPGQDTLGLYRRQNHVRVIYLLYGLPTLIFRITAAHEYAHAWQAEHCPLLRNEFLREGHAEWVAYQHLLQLGSHKAAARMLDENHPYHEPLRYLLQLEAQLGIEGVNRYMMRVDIE | not soluble
MGITSAGMQSRDAECGERIFTRTVRQVKQQTTVHYFVSPPRPPVKTNPQAKTLISTRLEVATRKKRRVLFILEHHHHHH | not soluble
MLLKRRLFIAASLFAMHLSPALAADAVSFAPQPPAIDAGAWVLMDYTTGQVLTAGNEHQQRNPASLTKLMTGYVVDRAIDSHRISPDDIVTVGRDAWAKDNPVFVGSSLMFLKEGDRVSVRDLSRGLIVDSGNDACVALADYIAGGQPQFVAMMNSYVKKLNLQDTHFETVHGLDAPGQHSSAYDLAVLSRAIIHGEPEFYHMYSEKSLTWNGITQQNRNGLLWDKTMHIDGLKTGHTSGAGFNLIASAVDGQRRLIAVVMGAKSSKGREEQARKLLQWGQQNFATVQILHSGKKVGSERIWYGDKEKIALGTEQDFWMALPKAEIPHIKAKYVLDRKELEAPIAAHQQVGEIELYDRDKLIAQWPLVTLESVGKGGMFSRLSDYFQHKA | not soluble
MVQRLISANASEIKRMSKEELFQSIKASEGRVILSENVVVHPSVAGDITCAEMSKAYGADMILLNVFDVNQPIVVAAYEGQYTAETCVPNDEVVHRLKELVGLPIGMNVEPVDENLDLASTRVSIEPGRKASAATFKKANELGLDFILLTGNPGTGVTNDLIAKNVALAKKHFDGIIIAGKMHSSGVDEPVVSLKSAEQFIEAGADIVLVPAVGTVWGIDDQQVKEVVDFAHSKGKLVMSAIGTSQESAQPEVIQAIGIRNKILGVDIQHIGDANMGLVGIENIKELSDAIRGKRHTVARMARSINR | not soluble
SMNSNMGSDSGTMGSDSDEENVAARASPEPELQLRPYQMEVAQPALEGKNIIICLPTGSGKTRVAVYIAKDHLDKKKKASEPGKVIVLVNKVLLVEQLFRKEFQPFLKKWYRVIGLSGDTQLKISFPEVVKSCDIIISTAQILENSLLNLENGEDAGVQLSDFSLIIIDECHHTNKEAVYNNIMRHYLMQKLKNNRLKKENKPVIPLPQILGLTAS | soluble
MSLSMKKERGVVYTPLKISNYIIDSTISEEDIIKNPFLKIVDPACGCGNIIIPCFIYLRNIYIKNLDKINNINKLELREENINYHIIKNNLFGYDVDLNAIKVLTIDLFCESKCFSSNFLCKDFLLDEIGIKYDIFLSNPPYVGLKSINKEYSAILKTMYPSYKDKADISYCFFEKSILCLKIDGKLGFITSRYFLESQSGEELRRILVEKCSLYKIVDFYGIRPFKKAGIDTVMIFLERGIGDRKSIEIIKPKIMKNNRKDEFYYSLFNGTNEGIDKFYINIKALDSKRWILRKDEEIDIINKIEKNSEGHHHHHH | not soluble
MSLFFRDVIGQEEAKYRLIQEVSEGRIPHAQLFCGPEGVGKFPLALAYARYLSCTNRSDTDACGVCPSCVKFNKLVHPDVHFVFPVVKNGRSDDYIVEWRKLVLNNPYFTINHWLNEINAENAQAVIYTKESDEIMKKLSLKSSEGGFKITLLWLPEKMQQACANKLLKLLEEPPEKTIFLLVSEAPDLILQTILSRTQRFNLRKIEEECMAEALQSKYGVQQATSISIAHLANGNFIKALETIHLNEEGHHHHHH | soluble
MAHHHHHHMSLTKGSKAAQDVISFLHTVGRLKVTARQGWVENQICSPESVSDHMYRMSLMCMMCPDTSLNRDRMVKMALCHDTGESIIGDISPAMKVPKEVKKQQESQAVQSLCKLVSSSPNTTFSKELGDLFEEYEAQETAESHFVKDMDLLEMVVQAHSYESANPGKDLGSFFRSGANIHHPWARAIYETLLETRPYLAYKEEQAKEASSI | soluble
MSTTGSAPLNLREWTAPEKLLPNGSPLVPVDARGADWHGIELGELDLRGAKLCRCDLRGTDLSHCQLDGADLRLARYDSQTVVPVGFDLSNSGAVGPGAKLNGVYLNSSDLRGMDLRGSMLLGSYLSGADLSGAILDGVSLAGSDLRSSTMRGAMCRGTRFGTCELDMADLRGANLEGAVLETVESIRGADFSLCTGLGAQIDALLSRSVAELDCWNPLTRSTTRDSLESLRAARSD | not soluble
MDEGMQIVGAVSGLSTPFNQNVSLECYNGILSMLLNGAPLADILHALVLKIEDQRLGTHASVLLLSEDGKRVLTGAAPHLPDSYNQVIHGVEIGPEVGSCGTAAYTGQRVIVEDIEHHPYWALYKSFALVHGLRACWSEPIKDTQGKVLGTFAMYYKEIKSPTVADLTLIAEAARLASLAIERSRSLEFQRLAVKIFDRLPLALVITNASHSVLYANDAFKLMVCLQPDDILAFNPEQFFSPSEPHEIASLFNHLSEGKMWQGELVGLRNNGETFYLDLTVTVFRESHSADLGFAWLFSDVSERKKAAQLIKYQANNDSLTGLANRNALFRQIQELINADSLTPGFSFMLMDLDNFKQVNDTYGHDKGDVLLVQMVEQVKICLDPQAVFARLGGDEFAILLPGVVTQRELSQLADKINKQVYRRYELSHDKGVYSSVSIGIARFPEDALDLEQLLNCADQAMYISKANGRNRYHFFTEQMQQNAERIANLHTLLKQALEQNAFELYFQPIVDATTGLIVRAEVLLRWQHEGQFISPDEFIPIAENSGLIVSIGRCVRQAVMQTIVEMQALGWPMSLAINVSTFEFWSHELQDEFCDSFTDIIEGLGVEDFPYELITLEITESLLMKKHAHLIQVLNELRARGIKISLDDFGTGYSSLSYLANFPIDQIKIDKSFIDRLAEGERHLALIEAIVRLSHALNLRVTAEGVETQEQLQVMMDNHIQEIQGYLFYKPIPKAVFFELLAKQAVISPHSLEHHHHHH | not soluble

Source: the DeepSol protein solubility set
